A short description of the series: soluble on expression in E. coli; label from the status in PepcDB or PDB records.
In the case of “MAHHHHHHMHIGLAAAVPSPTTAPQWLQDIENQLLIRNAIELKPSQSIFDSYTTLHVSVLHLQTVEDERQRLRMERSRLTERVRELEQAAANSSLQTSYERELEAKKDALQDQLRVYMQRESDYYKALSEVKAVQEERDMLRLRSNKLDAELEQRTAELQLLHKEYTALRDEYDRVRLTVSEADRYLREVKTAKEKTVQLQHRIVTLEDEVNMLRRQLQEALKGETAAAVDKAKRANPNKDGEDAEVAPSPMHTTHSPHTDPCTTLSPNPLGAEPSHASMVISEAHTSSTLHGLCVLDDGKRFLTSGADKHIRLWNRQSPQAEKYFSSSSIALALDTSSHYLLAGCADHVVRFWDVNSLRVLEMTGHTEKVVAACLSSSAQHAFTASSDSTIKLWDVRRRESLRTLLCQSTCNDVTVAGDTVFSAHYNGKITVWDRRTATRSGEVVAHQRVATCVRVSANGQLCVSMGKDNVISVRDARVFTKTLFSVAPVQLVVMMNWARLSIAPSGQLCAVGSGRTSDLLLIRLHGGGQGDAEATDSASSPALVKVLKACVSNATSYGDQGSGSSKGPIFSTAWGASEGGPLVSISNDRCVQVWE”, the “soluble on expression in E. coli” value was “not soluble”.

For “MAHHHHHHMASADSKAVLLSSQPGATAYSSTVAVKVQAGRMILQDGIVRPLLGSGFLFLLREGLLQDTVLTWVSSDGEEQCRVTLPPGRVKVSWVEKCRPSRVLLFDIDNGKQPLFFWMQSRSDELDEPVMHRIQHAIERNRQQAVAQHGRREIKMGTLQNILSDLWSEALAHDVNLVDILGSEKLLKALQEDPGFYTLRLKDYLPLGELDSGVPLDLKKLMNDRQVQWTAEILGTLLRHETTYSQLSASFLNGTMLWGANVTSFIVSIINIFLPQNEQQQMGESDN”, the “soluble on expression in E. coli” value is listed as “not soluble”. For “MLTLIQGKKIVNHLRSRLAFEYNGQLIKILSKNIVAVGSLRREEKMLNDVDLLIIVPEKKLLKHVLPNIRIKGLSFSVKVCGERKCVLFIEWEKKTYQLDLFTALAEEKPYAIFHFTGPVSYLIRIRAALKKKNYKLNQYGLFKNQTLVPLKITTEKELIKELGFTYRIPKKRL”, the “soluble on expression in E. coli” value is on record as “soluble”. In the case of “MTYSHEVEHMCVVKKGPNHGPAPIPEEGKWVKSKEIVDISGLTHGIGWCAPQQGACKLTLNVKEGVIQEALVETIGCSGMTHSAAMAAEILPGKTILEALNTDLVCDAINTAMRELFLQIVYGRTQSAFSEGGLIIGAGLEDLGKGLRSQVGTLYGTLAKGPRYLEMAEGYIKNIFLDKNDEICGYEFVHMGKFMDEIKKGTDANEALKKVTGTYGRVTAEQGAVKHIDPRHE”, the “soluble on expression in E. coli” value is listed as “not soluble”. With “MTTMPQRESTIAVPDDRRKQLGAFLRARRESLDPQRLGLPRVGRRRTPGLRREEVAMLADVGVTWYTWLEQGREVNPSEAVLVGVANALQCSPLETRHLFVLAGLTPPEATQVTVCEGISPGTRRMLDSLMPQPASIQKPNFDIVAWNDSFCRLMGIDFATLPEEDRNCIYLYLTHETWRSRIENRDVLPTFVSYFRAAMAEHRGDPAWENKLARFFAASSEFEALWHQRYEVRGVENQIKHFNHPQLGRFSLQQMYWYSAPRNGSRLLVYLPMDEAGEQALAWLDQH”, the “soluble on expression in E. coli” value was “not soluble”.

For the sequence “MGSDKIHHHHHHAAVLSGCEFNEDFCIRNGELVAWCDFSGIRETPPVPEERHIIAFPSGMDIPSGEQMTFTQDTLRQSIPQGEYQFLFYTGNYEVSDIRDYHEARLMARTDTLEGEVYISGVQKFCCSAGFSQRLEYQRPKRVPITPSAFVQRLNIQINVSGNITPLAGLQGTLTGISTGRYLVSRERTGNASVTSLFSRKPETDRWKTSLYAFGFNPAAENILSVKIEMDGKDSVFNEEQKVDLTPYLRGFDSDELSLELDLHIGKELTIGEPVVIPDWEDIPETELPNYN”, the “soluble on expression in E. coli” value is recorded as “not soluble”. As for “MGTEGGAMIRTVALVGHAGSGKTTLTEALLYKTGAKERRGRVEEGTTTTDYTPEAKLHRTTVRTGVAPLLFRGHRVFLLDAPGYGDFVGEIRGALEAADAALVAVSAEAGVQVGTERAWTVAERLGLPRMVVVTKLDKGGDYYALLEDLRSTLGPILPIDLPLYEGGKWVGLIDVFHGKAYRYENGEEREAEVPPEERERVQRFRQEVLEAIVETDEGLLEKYLEGEEVTGEALEKAFHEAVRRGLLYPVALASGEREIGVLPLLELILEALPSPTERFGDGPPLAKVFKVQVDPFMGQVAYLRLYRGRLKPGDSLQSEAGQVRLPHLYVPMGKDLLEVEEAEAGFVLGVPKAEGLHRGMVLWQGEKPESEEVPFARLPDPNVPVALHPKGRTDEARLGEALRKLLEEDPSLKLERQEETGELLLWGHGELHLATAKERLQDYGVEVEFSVPKVPYRETIKKVAEGQGKYKKQTGGHGQYGDVWLRLEPASEYGFEWRITGGVIPSKYQEAIEEGIKEAAKKGVLAGFPVMGFKAIVYNGSYHEVDSSDLAFQIAASLAFKKVMAEAHPVLLEPIYRLKVLAPQERVGDVLSDLQARRGRILGMEQEGALSVVHAEVPLAEVLEYYKALPGLTGGAGAYTLEFSHYAEVPPHLAQRIVQERAQEG”, the “soluble on expression in E. coli” value is recorded as “soluble”. Regarding “MKVLLIIPAYNEEENILRTIASIETFKQEVTHFQHELDYVVINDGSTDGTKQILEANQINAIHLVLNLGIGGAVQTGYKYALENEYDVAVQFDGDGQHDINSLPILLEPLAEGKCDFSIGSRFIPGNEASFQSTKMRRFGIRLLSFCIRMASGKTIYDVTSGYRAGNRKVIAFFAKRYPTNYPEPESIVHLIKKRFVIVERPVNMMERLGGVSSIRALASVKYMLEVGSAILIAAFMKEGDLEHHHHHH”, the “soluble on expression in E. coli” value is “soluble”. Take “MGSDKIHHHHHHGKEEEGPIPTDRQVPIGVMEASLSTRVSTRGVINTDIYKLGIFRTNANGYPPQYDAPYSYDGAAGWTATTEILVDHRSASLYAYYPYQSVSFADNTTKAILVAQIYDAAKDMCYGSATSADGSGMINNDHKGVRFIDMKHAYARLKLTFVRGTNVMSGRKCKIENIVLKNNSTNFYLQRQVDITTGTITEGTPAAEGYVHNPNVEIASGNQVYEYLLPPQSLTDNKLTISVTVDGEVRTVTVTAFGGTLNAGGYYHVTLTINDVQIVPSAGVTDNGYTSGDDPKNPIQNNTPSVV”: the “soluble on expression in E. coli” value was “not soluble”. On to “MSLAPRLKLRDITFFERPVQFARPFRFGAITMNATTQLFVRVEIEVEGRGSAVGASAELLVPKWFDKRPEFSPAQTVDGLRRSLEIARGLYLARTGFLTAFDLHAACIGAQIATCAKKNIPALAAAYGLAEIDKAILDALLRGVETGFFDGMAGNVAGIDARLSPDLKDAEIAAFLSSRKPLPRVAIRHTVGLDDTVEGKGGVADAHENAGASYFKLKLSGDPAADAARLARIGKELDTLGRSYKVTLDANEQYADLAALQALMDRLDHDSDLRPIASRLLYVEQPMPRDITRQSPLGSLAARGFIIDEADDSYDAFPAARALGYHGISSKSCKGLYKSIVSATRAAKWSGGGEKFFVTGEDLTCQAGLAVQQDLAMGAFLGVTHAERNGHHYVDGFGDTPAAEAAAFAAAHPDLYADAGQGIRLSIHDGDLLTGSLHAAGFATSVHPDWSALRPLEQPTSLQEQLAEGHHHHHH”, for which the “soluble on expression in E. coli” value is given as “not soluble”. As for “MGSDKIHHHHHHMLTEQPNWLMQRAQLTPERIALIYEDQTVTFAELFAASKRMAEQLAAHSVRKGDTAAILLQNRAEMVYAVHACFLLGVKAVLLNTKLSTHERLFQLEDSGSGFLLTDSSFEKKEYEHIVQTIDVDELMKEAAEEIEIEAYMQMDATATLMYTSGTTGKPKGVQQTFGNHYFSAVSSALNLGITEQDRWLIALPLFHISGLSALFKSVIYGMTVVLHQRFSVSDVLHSINRHEVTMISAVQTMLASLLEETNRCPESIRCILLGGGPAPLPLLEECREKGFPVFQSYGMTETCSQIVTLSPEFSMEKLGSAGKPLFSCEIKIERDGQVCEPYEHGEIMVKGPNVMKSYFNRESANEASFQNGWLKTGDLGYLDNEGFLYVLDRRSDLIISGGENIYPAEVESVLLSHPAVAEAGVSGAEDKKWGKVPHAYLVLHKPVSAGELTDYCKERLAKYKIPAKFFVLDRLPRNASNKLLRNQLKDARKGELL”, the entry is “not soluble”.
